In US20070129537A1 (University of California, published 2007):
Ends that are not written are not given here.

Target: T1, natural proline-rich peptide ligand C3G, PPPALPPKKR (peptide SEQ ID NO: 11)
T1 peptide: PPPALPPKKR-NH2
Experiment: fluorescence-based titration (excitation 300 nm, emission 348 nm), 25 C, 0.5 uM protein, 1:1 complex assumed
Protocol: The ligated product is marked with an asterisk. […] The ligation product was by far the main product and could be easily isolated by semipreparative HPLC. Referring to FIG. 6B, characterization of the product by ES-MS confirmed the identity of the SH3 ligated domain. The ligated SH3 domain was readily purified by HPLC and refolded by flash dilution in 20 mM sodium phosphate, 100 mM NaCl at pH 7.2. The ligand binding activity of the synthetic SH3 domain was evaluated using a fluorescence-based titration assay. […] Referring to FIG. 6C, the equilibrium dissociation constant for binding of the synthetic SH3 domain to the natural proline-rich peptide ligand C3G i.e., […] (peptide SEQ ID NO: 11), was 0.9 μM. […]
Fluorescence-based Ligand Binding Assay. The equilibrium dissociation binding constant of synthetic SH3 domain for ligand SEQ ID NO: 11 was obtained using a fluorescence-based titration assay. […] Excitation was at 300 nm with a 2.5 nm slit and the fluorescence emission was monitored at 348 nm through a 5 nm slit. […] The dissociation constant was determined by changes in the fluorescence of the protein solution upon addition of the corresponding peptide ligand at defined concentrations; calculations were made assuming formation of a 1:1 complex. […]

B1: synthetic c-Crk N-terminal SH3 domain obtained by native chemical ligation of peptide thioester SEQ ID NO: 9 and peptide SEQ ID NO: 10 (other)
chain: AEYVRALFDFNGNDEEDLPFKKGCILRIRDKPEEQWWNAEDSEGKRGMIPVPYVEKYG
modifications: N-terminal acetyl (Ac-AEYV...); C-terminal amide implied (peptide SEQ ID NO: 10 made on Rink-amide resin); Cys introduced at the N-terminus of SEQ ID NO: 10 (ligation site); the -SEt thioester of SEQ ID NO: 9 is lost on ligation
notes: used at 0.5 uM in 20 mM sodium phosphate, 100 mM NaCl, pH 7.2; ESMS found 6894.1 Da (calculated 6891.7 Da); also called ligated SH3 domain; synthetic SH3 domain
Kd: 900 nM
